# Experiments:
# diabetogenic mice = experiment: In vivo delivery efficiency test: plasma glucose levels in diabetogenic mice; details: 0.2 IU insulin, subcutaneous injection
# Description: In this experiment, male C57BL/6 mice (7 to 8 week-old, OrientBio) were used. Animal experiments were conducted according to the Guide for the Care and Use of Laboratory Animals by the Severance Hospital Ethics Committee (Reference No.: 09-013, College of Pharmacy, Yonsei University, Korea). […] For successful diabetes induction, the blood glucose concentrations of all the mice were measured using a OneTouch Verio IQ system. […] Diabetogenic mice were divided into four groups, as follows: (a) an untreated group (a negative control); (b) a subcutaneously injected group (0.2 IU, a positive control); […] The mice were fasted during an experiment period, and freely fed with water. […] After 6 hours of the treatment, blood samples (0.1 ml) were taken from wounded tail vein areas every one hour. […] The plasma glucose levels per hour in each group were measured using a glucose CII-Test kit. The plasma insulin concentrations were measured using an insulin ELISA kit (ALPCO). To examine the in vivo delivery efficiency by DMN patch and subcutaneous injection (SC) methods and through the microlancer, insulin was administered to diabetogenic mice using each of the methods, and changes in blood glucose levels were measured. […] Insulin was administered using each of the methods, and changes in plasma glucose levels in the diabetogenic mice were measured after the elapse of 6 hours (see FIG. 17B).
# [1] = In vivo delivery efficiency test: plasma insulin concentrations in diabetogenic mice; details: 0.2 IU insulin, subcutaneous injection
# Description: In this experiment, male C57BL/6 mice (7 to 8 week-old, OrientBio) were used. Animal experiments were conducted according to the Guide for the Care and Use of Laboratory Animals by the Severance Hospital Ethics Committee (Reference No.: 09-013, College of Pharmacy, Yonsei University, Korea). The mice were anesthetized with Avertin (2,2,2-tribromoethanol, Sigma-Aldrich), and 50 mg/kg of streptozotocin in a sodium citrate buffer (pH=4.5) was intravenously injected into the mice to induce diabetes. For successful diabetes induction, the blood glucose concentrations of all the mice were measured using a OneTouch Verio IQ system.
# Diabetogenic mice were divided into four groups, as follows: (a) an untreated group (a negative control); (b) a subcutaneously injected group (0.2 IU, a positive control); (c) a patch-treated group (0.2 IU insulin-loaded DMNs); and (d) a microlancer-treated group (0.2 IU insulin-loaded DMNs) (n=5 per group). The mice were fasted during an experiment period, and freely fed with water. The back regions of the mice were shaved using an electric shaver, and 0.2 IU of insulin was administered by means of a DMN patch through a microlancer or by subcutaneous injection. […] The plasma glucose levels per hour in each group were measured using a glucose CII-Test kit. The plasma insulin concentrations were measured using an insulin ELISA kit (ALPCO).
substance,measurement,setting,value
insulin: Humalog insulin purchased from Eli Lilly; 0.2 IU subcutaneously injected as positive control,time of lowest blood glucose level compared to insertion through the microlancer,diabetogenic mice,an hour earlier
same,maximum plasma insulin concentration,[1],156 μIU/ml
same,time of peaks for the plasma insulin concentration,[1],an hour

# Reference: patent US10737081B2, “Painless and patchless shooting microstructure” (JUVIC INC., priority 2013, dated 2020)
